Reference: the DeepSol protein solubility set

Assay: soluble on expression in E. coli; label from the status in PepcDB or PDB records

Sequence	soluble on expression in E. coli
MSLSVKILFKNATVFPITSRPFKGDVLVSNGKVEKVGENIEDPDAEIVDLTGKFLFPGFVDAHSHIGLFEEGVGYYYSDGNEATDPVTPHVKALDGFNPQDPAIERALAGGVTSVMIVPGSANPVGGQGSVIKFRSIIVEECIVKDPAGLKMAFGENPKRVYGERKQTPSTRMGTAGVIRDYFTKVKNYMKKKELAQKEGKEFTETDLKMEVGEMVLRKKIPARMHAHRADDILTAIRIAEEFGFNLVIEHGTEAYKISKVLAEKKIPVVVGPLLTFRTKLELKDLTMETIAKLLKDGVLIALMCDHPVIPLEFATVQAATAMRYGAKEEDLLKILTVNPAKILGLEDRIGSIEPGKDADLVVWSGHPFDMKSVVERVYIDGVEVFRREGHHHHHH	soluble
MSLTADKYTVAINENALKILGEIVFLMGASQNFAKYPVSFIINYLLPSIYLNQYRIYRTVKDNKPIGFACWAFINDQVEKELIENDINLSVEERNSGENIYVLYFIAPFGHAKQIVHDLKNNIFPNKIVKGLRLDKDGKKVLRVATYYEGHHHHHH	soluble
MSLTADPPACTVPAAGGASTHKLVNAGAEKMIFKIKSSNNNEYRITPVFGFVDPSGSKDITITRTAGAPKEDKLVVHFAAAPADATDAQAAFAAITPAGTITIPMSATA	soluble
MSLTAELQALDAAHHLHPFSANNALGEEGTRVITRARGVWLNDSEGEEILDAMAGLWCVNIGYGRDELAEVAARQMRELPYYNTFFKTTHVPAIALAQKLAELAPGDLNHVFFAGGGSEANDTNIRMVRTYWQNKGQPEKTVIISRKNAYHGSTVASSALGGMAGMHAQSGLIPDVHHINQPNWWAEGGDMDPEEFGLARARELEEAILELGENRVAAFIAEPVQGAGGVIVAPDSYWPEIQRICDKYDILLIADEVICGFGRTGNWFGTQTMGIRPHIMTIAKGLSSGYAPIGGSIVCDEVAHVIGKDEFNHGYTYSGHPVAAAVALENLRILEEENILDHVRNVAAPYLKEKWEALTDHPLVGEAKIVGMMASIALTPNKASRAKFASEPGTIGYICRERCFANNLIMRHVGDRMIISPPLVITPAEIDEMFVRIRKSLDEAQAEIEKQGLMKSEGHHHHHH	not soluble
MSLTALMVGTGRGAKMGILIKNGEVLEAVNDVQTVVFDKTGTLTVGKPQVTDIIGDSKQVLRIAASLEDSSEHPLAAAILAKAKADNISTLPVENFTAIEGKGVAATISGQQGVVGNQKLLGDLTFNKQLQQQETRLQNEAKTVVFVGLDDRIIGLIAIQDAPKPTSKEAIAALRARGLRTVMLTGDNQRVAQAVAQQIGIDEVIADVLPGDKAAQIKQFQHDEGHHHHHH	soluble
MSLTASYETIKARLDGTVLSATFNAPPMNLIGPEVVRDLVALLEELAHPTAPRVVIFDSADADFFFPHVDMTKVPEYTAEAAKAGGPGDASLGMLFRKLSQLPAVTIAKLRGRARGAGSEFLLACDMRFASRENAILGQPEVGIGAPPGAGAIQHLTRLLGRGRALEAVLTSSDFDADLAERYGWVNRAVPDAELDEFVAGIAARMSGFPRDALIAAKSAINAISLPAPAEVRADAALFQQLVRGEKVQQRTAELFKQGFQTRGATELDLGDALGHLKAVDEGHHHHHH	soluble
MSLTDLSMPKPPSVLPDKRQVAASFSRAAGSYESVAELQRSVGSELLSRLPAQFSPVRWLDLGSGTGYFSRALDQVFSGSEGIALDIAEGMLRHAQPLGGAQHFVAGDAEHLPLRDQSCGLIFSSLAVQWCADFAAVLREAHRVLQPSGVFAFASLCVGTLYELRDSWQAVDGQVHVNRFRHEDDYRQLCAASGLQVRSLDVCPQVLHYPDVRSLTHELKALGAHNLNPGRPSGLTGRERIKGMVQAYEAFRQEAGLPATYQVVYAVLEKAEGHHHHHH	not soluble
MSLTDNLVRVVCVSDTHNTKPNLPDGDILIHAGDLTESGTKEELEKQIYWLDSQPHRYKIVIAGNHETFLDRNYHSHHGNERVTMDWKSLIYLENTSAILDLGAGHQLKVFGSPYTPKHGNGAFQYPRTDTTTWEEIPKDTDLLVTHGPPKAHLDLGHLGCRVLRQALWEMESRPLLHVFGHIHGGYGKEEGHHHHHH	soluble
MSLTDPNRLTLFYSPQTRATGMRVLLEELGAPYDLHVLNMKAGEQRQPAYLAINPLGKVPAIRRGDALVTEQVAITIYLADLFPGAGLAPSLDDPLRGPYLRWIAYYGSTFEPAVVDRSMQREPGPAEMSPYADYDTMLGALEAQLATGPYLLGDRFTAADVLWGIALNWTLNFGLVPKKDAFVRYAELVTARPAFRRVDLADAEMAAEGHHHHHH	soluble
MSLTDRTIGEAAELLGVTTRTLRHWDSIGLLQPSWRTTTDYRLYTEDDVERALQILIYRAAGIGLKDIAEVLDQPDSANQHLRRQRELLVEQIGQLHRMVRAVDEILGKDAISVKEKIEIFGEDLPKYQEEAFQRWGEGHHHHHH	soluble
MSLTECFLSDQEIRKLNRDLRILIAANGTLTRVLNIVADDEVIVQIVKQRIHDVSPKLSEFEQLGQVGVGRVLQRYIILKGRNSEHLFVAAESLIAIDRLPAAIITRLTQTNDPLGEVMAASHIETFKEEAKVWVGDLPGWLALHGYQNSRKRAVARRYRVISGGQPIMVVTEHFLRSVFRDAPHEEPDRWQFSNAITLAREGHHHHHH	soluble
MSLTELLNNQDYRKEALKEIIRELHRGKSVEEVKARFNELIKDVAPAEISLMEQALINEGLPVEEVQRLCDVHAAVFKESLERAPQPETIPGHPVHTFKEENRALEDLMIREIQPLLAELRRANPDVEKDLAIKLAEKLNLLQDVNKHYSRKENLLFPYLEKYQIVGPPKVMWGVDDEIRDLLKEARDLAVNYVPDKKEELITRTEAALAKIKEMIFKEERILFPMALETLTEDEWYRIMLDSASIGYCLIEPREDWRPAQVKLDQKETVASEETRGYIKFATGILTPREISLIFDHLPVDITFVDKDNVVKYFSNTRERIFTRSRAVIGRRVENCHPPASVQVVEKLIADFKSGRKDREAFWLHLGDKYVFIQYFAVRDEKGDFAGTLEVTMDLKPLQAISGEKRIMDEGHHHHHH	soluble
MSLTESARATVSLGFTAELFPPGTHMCYIYNDERERLEIMSEFVRSGIESGEKIAYFVEEMSPQALRDYLAGLGIVPTEEAQLEIAPSVDVYCPEGRFSPDRMLGRLRSAYEDGIREGFNGVRLTGEMHWALRGLPGSERLAEYESRINLLVVDCPLTVICQYDANHFDGATLFKILNAHPMMIVRGQVVHNPYYLSPEEYFARYPVPNVEGHHHHHH	soluble
MSLTIAHLTSSAFAVNKERNKFLMIHHNIYNSWAWTGGHSDNEKDQLKVAIKELKEETGVKNPTPLLDKAFALDVLTVNGHIKRGKYVSSHLHLNLTYLIECSEDETLMLKEDENSGVMWIPFNEISKYCSEPHMIPIYEKLINKLKTQSKEGHHHHHH	not soluble
MSLTIDHSVTNTEQLEQQNPAIKTKLKLKKLKDQVIVITGASSGIGLVTARMAAEKGAKVVAAARNEEALKELTDELKEKGHDAIWVKADVGKEEDVNRIAETAISTFGRFDTWVNNAAVSTFGHAMDVTVEDMKRMFDTNFWGPVYGTRAAVKHYTGRGVPGALINVGSLFGDRGTVIQSTYASAKFALHGWTESIRMELEKEQAPVSVTLIHPGRIDTPYNEHAHSYLDKQPAHYRSMIYPPEAVAEAILFAAEHPKRDMYIGSQAKAIAMLGALFPRLTDRLMEKIMYHSQHAERPSNPREGHHHHHH	soluble
MSLTIGFIFDLDGVITDTAKFHYQAWKALADSLGIPIDETFNETLKGISRMDSLDRILVHGHRENAFTPAEKEALAQQKNDHYVQLLEQLTTEDVLPGVVPLLQQAQARHIPCAVASASKNAPLILEKLGVRAYFATIVDPDSLSKGKPDPEIFLAAADSIGVLPQNAIGFEDAQSGIDGLKAAGIYAVGLSASQPLIGADMQVSEMTELSVDALLNREGHHHHHH	soluble
MSLTISLGYRALDVGRARAHALIDQLSARESVELLCEAFEVPRSCYYNHRLRRRNPDVERVRLRSRVNELFTQSRSAAGSRSIVLMMHEDGEQIGRFKVRSLMRELGLISKQPGSHAYRKATVERPDIPNILNRAFDVPAPNQVWCGDITYIWAQGKWHYLAVVMDLFARRVVGWALSSKPDTDLVIKALDMAYEQRGKPQGLLFHSDQGAQYGSRQFRQRLWRYRIRQSMSRRGNCWDNAPMERVFRSLKTEWIPTVGYMTAQEAQRDISHYLMHRYNWIRPHQFNNGLAPAQSEKRLNVVSGISEGHHHHHH	not soluble
